Results on two molecules are retold here after US20250215091A1, “Anti-GAL3 Antibodies and Compositions” (Les Laboratoires Servier, priority 2022, published 2025).

Experiment [1] has as its system rat model of ARDS. In words: Rat ARDS model (LPS challenge): neutrophils counts in BALF. Format: in vivo. As to conditions: antibodies 14 mg/kg x3 prior to LPS; dexamethasone 10 mg/kg oral; vs LPS group; FIG. 16. The procedure: (§1) Positive control rats received 3 doses of sterile phosphate buffer at day minus 11, minus 6 and minus 1 prior LPS challenge (0.25 mg/kg by subcutaneous route at day 1). Negative control rats received one oral dose of Dexamethasone at 10 mg/kg (dissolved in 0.5% carboxymethyl cellulose in deionized water) 2 hours prior LPS challenge (0.25 mg/kg by subcutaneous route at day 1). LPS (lipopolysaccharide) causes an acute inflammatory response, whereas dexamethasone has anti-inflammatory effects thus being the reference treatment in this model.
(§2) Antibody-treated rats received 3 doses of antibodies (14 mg/kg) at day minus 11, minus 6 and minus 1 prior to LPS challenge (0.25 mg/kg by subcutaneous route at day 1). Each antibody was solubilized in sterile PBS before injection.
(§3) Control rats of the experiment received 3 doses of sterile phosphate buffer at day minus 11, minus 6 and minus 1 without LPS challenge at day 1.
The impact of anti-Gal3 antibody treatment in LPS challenged rats were evaluated by quantification of neutrophils in Bronchoalveolar Lavage Fluid and compared to the positive control group (LPS challenge with PBS treatment) (FIG. 16). […] Neutrophils numeration levels were decreased after treatment with anti-inflammatory dexamethasone.

The next experiment deals with plasma TNF alpha. In words: Rat ARDS model (LPS challenge): plasma TNF alpha (MSD). The experiment is classed as in vivo. The settings on record: 4 h following LPS challenge; vs LPS group; FIG. 18. The procedure:
as §1, §2, §3
For all rats, plasma sampling was performed 4 h following LPS challenge.
The impact of anti-Gal3 antibody treatment in LPS challenged rats were evaluated on plasma cytokine levels, namely TNF alpha and KC-GRO cytokines, and compared to the positive control group (LPS challenge with PBS treatment) (respectively FIG. 18A and FIG. 18B). TNF alpha and KC-GRO were quantified by using the MSD technology from Mesoscale.

Experiment [2] deals with murine model of HOCI-induced fibrosis. In words: HOCI-induced murine fibrosis model: skin thickness. The experiment is classed as in vivo, mice. The settings on record: second experiment, sustained effect until day 63. Here is the method: (§4) In a first experiment, control mice (n=12) received a daily intradermal injection of 300 μL of sterile phosphate buffer saline (PBS) for 5 consecutive days per week, for a duration of 42 days. HOCI alone and HOCI with antibody (HOCI-antibody) treated mice (n=12 per group) received a daily intradermal injection of 300 μL of HOCI for 5 consecutive days per week, for a duration of 42 days. Antibody-treated mice also received a subcutaneous injection of 20 mg/kg antibody, starting at day minus one and every 5 days between day 5 and day 40. Each antibody was solubilized in sterile, endotoxin-free PBS before injection. In a second experiment, the same protocol was applied, except that duration of the study was 63 days and antibodies were given every 7 days starting at day minus 1 until day 62.
(§5) Mice that received daily injection of HOCI were also treated by intratracheal instillation of 0.5 mg/kg of TD139 compound (HOCI-TD139), a small molecule Gal3 inhibitor. In a first experiment, the administrations started from day 21 and the compound was given every 3 days until day 39. In a second experiment, the administrations started from day 20 and the compound was given every 3 days until day 62. TD139 was initially dissolved in 100% DMSO then diluted 50-fold in endotoxin-free PBS before administration.
The evolution of skin thickness was monitored by using an external caliper, every seven days until sacrifice.

The test system of experiment [3] is rat model of ARDS. In words: Rat ARDS model (LPS challenge): total BALF protein (BCA assay). The experiment is classed as in vivo. The settings on record: antibodies 14 mg/kg x3 prior to LPS; dexamethasone 10 mg/kg oral; vs LPS group; FIG. 17. Here is the method: as §1, §2, §3
The impact of anti-Gal3 antibody treatment in LPS challenged rats were evaluated by quantification of proteins (by BCA assay) in BALF and compared to the positive control group (LPS challenge with PBS treatment) (FIG. 17). The presence of protein in BALF reflects the damage to the air-blood barrier. […] Total BALF protein numeration levels were decreased after treatment with anti-inflammatory dexamethasone.

Experiment [4] deals with murine model of bleomycin-induced fibrosis. In words: Bleomycin-induced murine lung fibrosis model: body weight and body weight metrics. Format: in vivo, mice. Here is the method: (§6) Control bleomycin mice named ‘Bleo’ received an administration of 1.65 mg/kg bleomycin by the oropharyngeal route on Day 1. […] Antibody-treated mice also received an administration of 1.65 mg/kg bleomycin by the oropharyngeal route on Day 1 and a subcutaneous injection of 20 mg/kg antibody, starting on day minus one and on days 4, 8, 12, 16 and 20. Each antibody was solubilized in sterile, endotoxin-free PBS before injection. Mice that received bleomycin were also treated by oropharyngeal administration of 0.5 mg/kg of TD139 compound (Bleo-TD139), a small molecule Gal3 inhibitor, starting on day 12 and every 2 days until day 20. TD139 was initially dissolved in 100% DMSO.
Mice were weighed daily. Their growth curves are represented on FIG. 12. Control mice had normal growth with a mean percent increase of 6.4% of their initial body weight measured on day minus 1.
Body weight metrics were assessed by using two parameters called Time to weight growth (TWG) and Time to baseline (TTB), shown on FIG. 13. Time to weight growth corresponds to the point of inflection when mice show an ascending growth curve and start to regain weight within the course of the experiment. Time to baseline corresponds to the number of days required for mice to recover their initial body weight (day minus 1). The median TWG was 10 days for the untreated bleomycin group. […] TD139 compound had no efficacy on this parameter (p-value 0.53).

For experiment [5] the test system is unchanged. In words: Bleomycin-induced murine lung fibrosis model: Modified Ashcroft fibrosis score. Format: in vivo, mice. Here is the method:
as §6
Mice were submitted for terminal euthanasia on day 21. The lungs were collected for histopathological examination and gravity inflation-fixed with 10% neutral buffered formalin (NBF) before being immersion fixed in NBF.
Sections were taken and then placed on three slides as indicated by the code numbers on FIG. 14.
Three longitudinal sections parallel to and bisecting the main stem bronchus were trimmed from the left lung and right caudal lung lobes and mounted in cassettes 01 and 02, respectively. The right cranial, middle and accessory lung lobes were sectioned longitudinally and mounted in cassette 03. All sections were stained with picrosirius red and scored in a blinded manner by a certified veterinary pathologist using the Modified Ashcroft fibrosis score (0-8), where “0” corresponds to “normality (no fibrosis) and “8” corresponds to the highest possible fibrosis score, as described by Hübner et al. (2008) but based on assessment across the whole section of lung.

Experiment [6] deals with murine model of HOCI-induced fibrosis. Nature of the experiment: HOCI-induced murine fibrosis model: skin and lung collagen (Picrosirius red). The experiment is classed as in vivo, mice. The settings on record: first experiment. Here is the method:
as §4, §5
At the day of study termination of the first experiment (day 42), skin and lung samples were taken, formalin-fixed and processed to individual paraffin wax blocks. Sections of skin and lung were cut from the blocks and, after rehydration, stained with Picrosirius Red coloration according to the manufacturer's protocol. Subsequently, each slide was examined and remotely analyzed employing the web-based Image J software

B1: H10: anti-Gal3 monoclonal antibody, IgG1 format; VH SEQ ID NO 44, VL SEQ ID NO 45 (antibody, V domains shown)
VH: EVQLVESGGSLVKPGGSLRLSCAASGFTFSNYYMNWVRQAPGKGLEWISYINGASRDISYADFVKGRFTISRDNAKNSLYLQMNSLRAEDTAVYYCVRSSYGYSNYGSGMDVWGRGTLVTVSS
VL: QSVLTQPASVSGSPGQSITISCAGTSSDVGGSYNVAWYQQHPGKAPKLMIYNDANRPSGVSNRFSGSKSGNTASLTISGLQAEDEADYYCSSNTADSTRVFGGGTKLEIK
Turning to B1, the “neutrophils counts in BALF” value in the experiment with rat model of ARDS [1] is reported as “also decreased”. In addition, the “TNF alpha plasma levels” value with plasma TNF alpha is listed as “also decreased, displaying an intermediary profile”. Besides, in experiment [2] (63 days, antibody 20 mg/kg s.c. every 7 days, FIG. 7B), the “HOCI-induced increase in skin thickness” value is reported as “significantly reduced”. Moreover, in experiment [2], the “day from which reduction of skin thickness was significant” value is 14 days. Also, in the experiment with rat model of ARDS [3], the “total BALF protein” value was “also decreased”.

B2: D06: anti-Gal3 monoclonal antibody, IgG1 format; VH SEQ ID NO 38, VL SEQ ID NO 39 (antibody, V domains shown)
VH: EVQLVESGGSLVKPGGSLRLSCAASGFTFSNYNMNWVRQAPGKGLEWISSIYGSSRYIYYADFVKGRFTISRDNAKNSLYLQMNSLRAEDTAVYYCVRSGYGGMDVWGRGTLVTVSS
VL: QSVLTQPASVSGSPGQSITISCAGTSSDVGGYNGVSWYQQHPGKAPKLMIYYDSYRPSGVSNRFSGSKSGNTASLTISGLQAEDEADYYCSSGTDYSTRVFGGGTKLEIK
modifications: IgG1 constant region
As to B2, the “neutrophils counts in BALF” value with rat model of ARDS [1] is “also decreased”. Also, the “body weight status on day 21” value in experiment [4] (bleomycin 1.65 mg/kg, antibody 20 mg/kg s.c.) is “full weight recovery”. For the same molecule, the “recovery of body weight” value in experiment [4] (bleomycin 1.65 mg/kg, antibody 20 mg/kg s.c., FIG. 12) is “more rapid recovery of body weight”. Moreover, in experiment [4] (median TTB 20 days for untreated bleomycin group, FIG. 13), the “reduction of median Time to baseline (TTB)” value is on record as 5.5 days. Also, the “reduction of median Time to weight growth (TWG)” value in experiment [4] (median TWG 10 days for untreated bleomycin group, FIG. 13) worked out at 2.8 days. Moreover, the “TNF alpha plasma levels” value with plasma TNF alpha is given as “also decreased, displaying an intermediary profile”. In addition, the “frequency of animals with fibrosis score of 2” value in experiment [5] (day 21, 7.4% in untreated bleomycin group) is recorded as 30%. In addition, the “frequency of animals with median fibrosis scores of 3 or 4” value in experiment [5] (day 21, 87.6% in untreated bleomycin group) is listed as 64.5%. Besides, the “attenuation of lung fibrosis (overall)” value in experiment [5] (day 21, FIG. 15) is recorded as “clear evidence for attenuation of lung fibrosis”. The lung collagen levels result in experiment [6] (day 42, FIG. 8A) is reported as “restored lung collagen levels to those of control mice”. In addition, the skin collagen levels result in experiment [6] (day 42, vs HOCI group, FIG. 8B) was “non significant downward trend”. In addition, the “total BALF protein” value in the experiment with rat model of ARDS [3] was “also decreased”.
